US20140072613A1, “Compositions and Methods for Treating Cutaneous Scarring” (priority 2012, published 2014)

Legend:
Experiment in all cases: cell-based or functional assay
[1] = molecular target: FGFR1(h) (human) (UniProt P11362)
[2] = molecular target: T1, ULK2(h) (human) (UniProt Q8IYT8)
T1 sequence (looked up): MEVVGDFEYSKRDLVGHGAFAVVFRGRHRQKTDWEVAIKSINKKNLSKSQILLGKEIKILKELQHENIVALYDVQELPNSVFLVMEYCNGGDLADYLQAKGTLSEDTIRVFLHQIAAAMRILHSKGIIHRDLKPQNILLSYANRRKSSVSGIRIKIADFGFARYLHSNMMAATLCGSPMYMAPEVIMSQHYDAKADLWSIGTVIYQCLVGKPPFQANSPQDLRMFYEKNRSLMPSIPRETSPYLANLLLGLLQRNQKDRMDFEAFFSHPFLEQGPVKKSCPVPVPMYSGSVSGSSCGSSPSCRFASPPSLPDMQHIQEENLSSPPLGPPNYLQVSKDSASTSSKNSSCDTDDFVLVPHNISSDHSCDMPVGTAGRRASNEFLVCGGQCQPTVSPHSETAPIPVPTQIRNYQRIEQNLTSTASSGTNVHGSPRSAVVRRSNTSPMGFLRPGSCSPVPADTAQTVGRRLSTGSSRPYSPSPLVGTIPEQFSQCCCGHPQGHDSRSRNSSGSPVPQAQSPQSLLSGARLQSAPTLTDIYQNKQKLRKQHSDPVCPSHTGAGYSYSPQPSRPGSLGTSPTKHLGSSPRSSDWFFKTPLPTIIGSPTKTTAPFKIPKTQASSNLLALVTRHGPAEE

[3] = molecular target: SRPK1(h) (human) (UniProt Q96SB4)
Sequence of SRPK1(h) (human) (Q96SB4 whole entry): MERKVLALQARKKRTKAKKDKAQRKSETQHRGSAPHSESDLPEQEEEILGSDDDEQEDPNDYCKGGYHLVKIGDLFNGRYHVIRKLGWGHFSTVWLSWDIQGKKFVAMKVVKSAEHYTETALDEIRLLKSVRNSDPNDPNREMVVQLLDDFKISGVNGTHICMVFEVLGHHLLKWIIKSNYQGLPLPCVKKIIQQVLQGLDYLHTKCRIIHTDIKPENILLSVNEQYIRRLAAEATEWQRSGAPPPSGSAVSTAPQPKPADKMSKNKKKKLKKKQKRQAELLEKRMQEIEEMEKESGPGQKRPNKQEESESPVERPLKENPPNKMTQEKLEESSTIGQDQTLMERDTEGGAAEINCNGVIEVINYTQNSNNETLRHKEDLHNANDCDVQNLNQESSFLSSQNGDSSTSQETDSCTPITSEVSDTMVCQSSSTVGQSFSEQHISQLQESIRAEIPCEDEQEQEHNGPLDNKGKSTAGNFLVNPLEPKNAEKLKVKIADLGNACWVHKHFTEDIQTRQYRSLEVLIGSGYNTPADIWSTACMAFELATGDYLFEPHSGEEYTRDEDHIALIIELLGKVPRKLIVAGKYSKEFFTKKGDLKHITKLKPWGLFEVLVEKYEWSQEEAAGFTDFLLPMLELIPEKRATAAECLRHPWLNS

[4] = molecular target: T2, NLK(h) (human) (UniProt Q9UBE8)
T2 sequence (looked up): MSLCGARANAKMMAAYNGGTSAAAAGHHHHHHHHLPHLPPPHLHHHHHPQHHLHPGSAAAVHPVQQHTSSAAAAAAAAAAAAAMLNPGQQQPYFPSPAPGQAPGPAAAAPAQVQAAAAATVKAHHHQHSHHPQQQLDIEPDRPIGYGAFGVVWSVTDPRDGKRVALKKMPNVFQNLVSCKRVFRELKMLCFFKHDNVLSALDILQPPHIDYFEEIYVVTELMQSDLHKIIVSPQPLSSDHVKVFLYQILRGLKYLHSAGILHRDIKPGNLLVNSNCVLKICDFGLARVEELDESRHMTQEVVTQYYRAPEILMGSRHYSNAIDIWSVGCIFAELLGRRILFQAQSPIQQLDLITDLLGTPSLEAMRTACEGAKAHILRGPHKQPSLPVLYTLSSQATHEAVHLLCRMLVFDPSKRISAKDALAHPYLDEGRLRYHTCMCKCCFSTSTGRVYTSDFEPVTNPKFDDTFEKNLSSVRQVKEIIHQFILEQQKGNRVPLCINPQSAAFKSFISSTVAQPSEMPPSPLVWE

[5] = molecular target: Syk(h) (human) (UniProt P43405)
[6] = molecular target: T3, BrSK1(h) (human) (UniProt Q8TDC3)
T3 sequence (looked up): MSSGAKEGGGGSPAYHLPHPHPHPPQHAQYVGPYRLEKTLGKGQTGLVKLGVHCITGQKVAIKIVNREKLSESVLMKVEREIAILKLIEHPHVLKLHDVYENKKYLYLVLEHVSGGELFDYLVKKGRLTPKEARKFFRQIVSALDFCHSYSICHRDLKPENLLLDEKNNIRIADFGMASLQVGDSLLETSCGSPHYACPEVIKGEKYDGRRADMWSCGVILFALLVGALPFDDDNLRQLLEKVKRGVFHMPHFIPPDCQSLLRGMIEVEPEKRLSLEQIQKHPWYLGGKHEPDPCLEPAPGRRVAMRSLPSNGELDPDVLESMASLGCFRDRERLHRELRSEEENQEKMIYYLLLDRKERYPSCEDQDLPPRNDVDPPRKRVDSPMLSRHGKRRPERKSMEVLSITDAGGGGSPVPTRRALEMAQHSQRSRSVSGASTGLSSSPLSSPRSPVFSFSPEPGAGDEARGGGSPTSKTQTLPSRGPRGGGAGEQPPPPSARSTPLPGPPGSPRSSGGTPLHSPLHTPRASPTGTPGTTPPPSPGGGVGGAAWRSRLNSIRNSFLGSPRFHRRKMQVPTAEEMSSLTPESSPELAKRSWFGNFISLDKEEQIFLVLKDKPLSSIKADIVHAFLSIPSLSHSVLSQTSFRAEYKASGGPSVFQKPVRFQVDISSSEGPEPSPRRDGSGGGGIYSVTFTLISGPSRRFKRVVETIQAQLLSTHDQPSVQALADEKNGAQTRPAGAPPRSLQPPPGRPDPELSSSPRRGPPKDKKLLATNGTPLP

[7] = molecular target: LOK(h) (human) (UniProt O94804)
Sequence of LOK(h) (human) (O94804 1-348 limits assumed): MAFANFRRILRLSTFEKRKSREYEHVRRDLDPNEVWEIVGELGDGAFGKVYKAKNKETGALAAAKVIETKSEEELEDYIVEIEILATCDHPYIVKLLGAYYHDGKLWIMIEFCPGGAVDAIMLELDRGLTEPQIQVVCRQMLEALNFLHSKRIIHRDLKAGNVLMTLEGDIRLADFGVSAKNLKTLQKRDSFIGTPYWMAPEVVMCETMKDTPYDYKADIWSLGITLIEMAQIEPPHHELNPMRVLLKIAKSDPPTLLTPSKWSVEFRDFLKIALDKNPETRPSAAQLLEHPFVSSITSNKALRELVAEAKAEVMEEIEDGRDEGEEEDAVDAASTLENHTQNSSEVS

[8] = molecular target: ASK1(h) (human) (UniProt Q99683)
Sequence of ASK1(h) (human) (Q99683 649-946 limits assumed): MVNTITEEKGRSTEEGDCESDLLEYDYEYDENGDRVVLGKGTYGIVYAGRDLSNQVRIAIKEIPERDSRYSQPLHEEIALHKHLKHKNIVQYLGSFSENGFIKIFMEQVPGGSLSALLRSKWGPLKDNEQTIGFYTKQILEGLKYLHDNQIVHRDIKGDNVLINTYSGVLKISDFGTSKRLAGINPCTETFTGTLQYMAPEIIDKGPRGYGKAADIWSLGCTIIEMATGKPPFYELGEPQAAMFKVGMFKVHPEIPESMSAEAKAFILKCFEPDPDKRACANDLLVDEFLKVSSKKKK

[9] = molecular target: T4, Ret(V804M)(h) (human) (UniProt P07949)
T4 sequence (looked up): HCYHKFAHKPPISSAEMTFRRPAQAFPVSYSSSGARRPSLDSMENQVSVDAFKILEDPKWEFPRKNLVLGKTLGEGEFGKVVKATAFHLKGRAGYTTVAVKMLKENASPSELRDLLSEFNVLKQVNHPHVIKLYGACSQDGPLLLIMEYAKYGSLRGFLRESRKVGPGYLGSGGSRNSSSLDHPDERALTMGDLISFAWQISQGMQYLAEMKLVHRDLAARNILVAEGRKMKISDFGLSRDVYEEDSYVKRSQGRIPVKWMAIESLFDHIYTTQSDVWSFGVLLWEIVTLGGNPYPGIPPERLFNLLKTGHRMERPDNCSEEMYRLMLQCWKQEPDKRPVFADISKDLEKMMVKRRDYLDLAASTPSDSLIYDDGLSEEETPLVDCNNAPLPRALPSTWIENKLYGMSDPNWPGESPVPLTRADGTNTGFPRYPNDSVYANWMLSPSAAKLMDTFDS

[10] = molecular target: Aurora-B(h) (human) (UniProt Q96GD4)
Sequence of Aurora-B(h) (human) (Q96GD4 whole entry): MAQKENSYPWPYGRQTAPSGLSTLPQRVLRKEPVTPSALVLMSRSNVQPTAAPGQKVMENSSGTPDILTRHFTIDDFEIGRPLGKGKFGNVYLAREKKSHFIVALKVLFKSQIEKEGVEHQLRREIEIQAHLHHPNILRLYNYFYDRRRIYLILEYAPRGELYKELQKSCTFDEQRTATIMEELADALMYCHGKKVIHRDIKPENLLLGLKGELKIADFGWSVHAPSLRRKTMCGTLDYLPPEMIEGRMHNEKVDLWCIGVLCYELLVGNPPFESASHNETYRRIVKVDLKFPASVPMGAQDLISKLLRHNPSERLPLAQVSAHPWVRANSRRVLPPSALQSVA

Sequence of FGFR1(h) (human) (P11362 456-765 limits assumed): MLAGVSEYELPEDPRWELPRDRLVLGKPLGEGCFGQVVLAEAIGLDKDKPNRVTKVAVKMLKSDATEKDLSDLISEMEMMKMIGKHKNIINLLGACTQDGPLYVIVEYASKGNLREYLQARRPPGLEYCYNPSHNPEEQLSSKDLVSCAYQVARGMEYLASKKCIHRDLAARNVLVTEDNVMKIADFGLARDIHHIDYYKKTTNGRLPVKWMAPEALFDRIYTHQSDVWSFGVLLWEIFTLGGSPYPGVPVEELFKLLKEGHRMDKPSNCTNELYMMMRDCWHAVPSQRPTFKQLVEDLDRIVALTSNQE

- % activity, 100 µM [1]: 18%
- % activity, 100 µM [2]: 124%
- % activity, 100 µM [3]: 80%
- % activity, 100 µM [4]: 19%
- % activity, 100 µM [5]: 5%
- % activity, 100 µM [6]: 72%
- % activity, 100 µM [7]: 7%
- % activity, 100 µM [8]: -4%
- % activity, 100 µM [9]: 36%
- % activity, 100 µM [10]: 5%
Substance: MMI-0500 (peptide)
